These are literature values, as cited in patent US20210338656A1, “IMMUNOSTIMULATORY AGENTS IN COMBINATION WITH ANGIOGENESIS INHIBITORS” (Alkermes Pharma Ireland Limited, priority 2020, published 2021).

The test system of the series is CD8+ T cells, NK cells, Tregs. The settings on record: human patients; cited from earlier work.

B1: fusion protein of SEQ ID NO: 1: circularly permuted (cp) IL-2 variant fused to the extracellular domain of the IL-2Rα portion of the IL-2 receptor (protein)
chain: SKNFHLRPRDLISNINVIVLELKGSETTFMCEYADETATIVEFLNRWITFSQSIISTLTGGSSSTKKTQLQLEHLLLDLQMILNGINNYKNPKLTRMLTFKFYMPKKATELKHLQCLEEELKPLEEVLNLAQGSGGGSELCDDDPPEIPHATFKAMAYKEGTMLNCECKRGFRRIKSGSLYMLCTGNSSHSSWDNQCQCTSSATRNTTKQVTPQPEEQKERKTTEMQSPMQPVDQASLPGHCREPPPWENEATERIYHFVVGQMVYYQCVQGYRALHRGPAESVCKMTHGKTRWTQPQLICTG
modifications: Human cpIL-2IL-2R-alpha
notes: circularly permuted (cp) IL-2 variant fused to the extracellular domain of the IL-2Rα portion of the IL-2 receptor
As for B1, the “activation of T regs” value is reported as “absence of dose dependent activation”; the “expansion of CD8+ T cells and NK cells” value is given as “in a dose dependent manner”; the “relative expansion of immunosuppressive Tregs as compared to high dose rhIL-2” value was “at least two fold less”.
